These results are taken from publication doi:10.1101/395996, “An interaction network of the human SEPT9 established by quantitative mass spectrometry reveals an interplay with myosin motors” (bioRxiv, 2018).

The target in this test is T1, 6his-SEPT9 (human, UniProt Q9UHD8 2-586).
T1 construct: SEPT9, human, PCR amplified from the GFP-SEPT9_i1 plasmid; the forward primer starts at the second codon (aag aag tct tac tca gga gg), the reverse primer holds the stop codon; also called 6his tagged SEPT9; 6his-tagged SEPT9; source: E. coli, purified (IMAC, approx. 70 % purity; desalted into PBS); not shown: His6, N-terminal, kept
T1 sequence (looked up): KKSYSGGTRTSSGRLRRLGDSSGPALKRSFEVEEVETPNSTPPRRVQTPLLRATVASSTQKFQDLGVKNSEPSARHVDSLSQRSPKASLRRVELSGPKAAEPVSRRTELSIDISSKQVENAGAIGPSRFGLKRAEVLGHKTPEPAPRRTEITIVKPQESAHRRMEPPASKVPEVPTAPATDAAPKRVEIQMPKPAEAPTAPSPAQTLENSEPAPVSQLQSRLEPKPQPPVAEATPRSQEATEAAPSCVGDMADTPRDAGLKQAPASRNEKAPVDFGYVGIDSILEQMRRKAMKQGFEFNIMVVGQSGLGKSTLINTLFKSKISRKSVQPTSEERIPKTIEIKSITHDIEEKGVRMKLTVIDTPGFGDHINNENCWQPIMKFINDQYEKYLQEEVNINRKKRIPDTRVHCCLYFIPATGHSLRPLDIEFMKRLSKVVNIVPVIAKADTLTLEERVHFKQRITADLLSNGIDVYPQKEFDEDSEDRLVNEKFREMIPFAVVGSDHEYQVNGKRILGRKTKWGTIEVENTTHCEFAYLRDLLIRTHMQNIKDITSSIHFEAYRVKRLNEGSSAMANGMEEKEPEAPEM
As to the kind of experiment: pull-down; GST fusions immobilised on Glutathione Sepharose from crude E. coli extract, incubated with 2 µM 6his-SEPT9 for 1 h in PBS; Western blot with anti-6his antibody; free GST as control. The conditions noted are these: both partners purified. In general terms: A western blot detects proteins with antibodies after separation by electrophoresis.

B1: GST-MYO1C_(809-1063) (domain or fragment, human, UniProt O00159 809-1063, looked up)
chain: LDHVRTSFLLNLRRQLPQNVLDTSWPTPPPALREASELLRELCIKNMVWKYCRSISPEWKQQLQQKAVASEIFKGKKDNYPQSVPRLFISTRLGTDEISPRVLQALGSEPIQYAVPVVKYDRKGYKPRSRQLLLTPNAVVIVEDAKVKQRIDYANLTGISVSSLSDSLFVLHVQRADNKQKGDVVLQSDHVIETLTKTALSANRVNSININQGSITFAGGPGRDGTIDFTPGSELLITKAKNGHLAVVAPRLNSR
notes: MYO1C, C-terminal tail fragment, amino acids 809-1063, amplified from cDNA of human 1306 fibroblast mRNA; cloned in pGEX2T; also called C-terminal tail fragment of MYO1C; source: E. coli, immobilised on Glutathione Sepharose from the crude extract; not shown: GST, N-terminal, kept
As to B1, the binding result is given as “binds”.

B2: GST-MYO6_(835-1294) (domain or fragment, UniProt Q9UM54 835-1294, looked up)
chain: PRIDGLVKVGTLKKRLDKFNEVVSVLKDGKPEMNKQIKNLEISIDTLMAKIKSTMMTQEQIQKEYDALVKSSEELLSALQKKKQQEEEAERLRRIQEEMEKERKRREEDEKRRRKEEEERRMKLEMEAKRKQEEEERKKREDDEKRIQAEVEAQLARQKEEESQQQAVLEQERRDRELALRIAQSEAELISDEAQADLALRRSLDSYPVSKNDGTRPKMTPEQMAKEMSEFLSRGPAVLATKAAAGTKKYDLSKWKYAELRDTINTSCDIELLAACREEFHRRLKVYHAWKSKNKKRNTETEQRAPKSVTDYDFAPFLNNSPQQNPAAQIPARQREIEMNRQQRFFRIPFIRPADQYKDPQSKKKGWWYAHFDGPWIARQMELHPDKPPILLVAGKDDMEMCELNLEETGLTRKRGAEILPRQFEEIWERCGGIQYLQNAIESRQARPTYATAMLQSLLK
notes: cloned in pGEX2T; also called C-terminal tail fragment of MYO6; source: E. coli, immobilised on Glutathione Sepharose from the crude extract; not shown: GST, N-terminal, kept
Regarding B2, the binding result was “binds”.
